Experimental data: patent US20060234308

Experiments:
[1] = tested on: T1, Cys-BAl-Pro-Lys-Asp-Pro-Ser-Gln-Arg-Arg-Arg-NH2
T1 sequence: CXPKDPSQRRR

[2] = tested on: T2, Cys-BAl-Ala-Lys-Arg-Arg-Arg-Leu-Ser-Ser-Leu-Arg-Ala-NH2
T2 sequence: CXAKRRRLSSLRA

[3] = tested on: T3, Cys-BAl-Gln-Lys-Arg-Pro-Ser-Gln-Arg-Ser-Lys-Tyr-Leu-NH2
T3 sequence: CXQKRPSQRSKYL

[4] = tested on: T4, Cys-BAl-Lys-Lys-Arg-Phe-Ser-Phe-Lys-Lys-Ser-Phe-Lys-Leu-NH2
T4 sequence: CXKKRFSFKKSFKL

[5] = tested on: T5, Cys-BAl-Pro-Leu-Ser-Arg-Thr-Leu-Ser-Val-Ala-Ala-Lys-Lys-NH2
T5 sequence: CXPLSRTLSVAAKK

[6] = tested on: other peptides not described as substrates for protein kinase C
[7] = tested on: T6, Arg-Arg-Ile-Ser-Lys-Asp-Asn-Pro-Asp-Tyr-Gln-Gln-Asp-BAl-Cys-NH2
T6 sequence: RRISKDNPDYQQDXC

[8] = tested on: T7, Leu-Arg-Arg-Ala-Ser-Leu-Gly-thioamide
T7 sequence: LRRASLG

[9] = tested on: 13-mer peptides of the scan through the myelin basic protein (MBP) from bos taurus
[10] = tested on: T8, Cys-BAl-Gly-Arg-Thr-Gly-Arg-Arg-Asn-Ser-Ile-NH2
T8 sequence: CXGRTGRRNSI

[11] = tested on: T9, Cys-βAla-Leu-Arg-Arg-Ala-Ser-Leu-Gly-NH2
T9 sequence: CXLRRASLG

[12] = tested on: T10, Cys-BAl-Lys-Arg-Arg-Glu-Ile-Leu-Ser-Arg-Arg-Pro-Ser-Tyr-Arg-NH2
T10 sequence: CXKRREILSRRPSYR

[13] = tested on: T11, Dpr(Aoa)-Leu-Arg-Arg-Ala-Ser-Leu-Gly-NH2
T11 sequence: LRRASLG

Protein kinase C
phosphorylation on peptide array (32P, PhosphorImager; higher signal in all three subarrays) [1]: the peptides known as protein kinase C substrates (substrate peptides Nos. 3, 23, 27, 41, 43) ... are recognised and phosphorylated by this kinase on the modified glass surface
phosphorylation on peptide array (32P, PhosphorImager; higher signal in all three subarrays) [2]: the peptides known as protein kinase C substrates (substrate peptides Nos. 3, 23, 27, 41, 43) ... are recognised and phosphorylated by this kinase on the modified glass surface
phosphorylation on peptide array (32P, PhosphorImager; higher signal in all three subarrays) [3]: the peptides known as protein kinase C substrates (substrate peptides Nos. 3, 23, 27, 41, 43) ... are recognised and phosphorylated by this kinase on the modified glass surface
phosphorylation on peptide array (32P, PhosphorImager; higher signal in all three subarrays) [4]: the peptides known as protein kinase C substrates (substrate peptides Nos. 3, 23, 27, 41, 43) ... are recognised and phosphorylated by this kinase on the modified glass surface
phosphorylation on peptide array (32P, PhosphorImager; higher signal in all three subarrays) [5]: the peptides known as protein kinase C substrates (substrate peptides Nos. 3, 23, 27, 41, 43) ... are recognised and phosphorylated by this kinase on the modified glass surface
phosphorylation on peptide array (32P, PhosphorImager; higher signal in all three subarrays) [6]: other peptides not described as substrates for protein kinase C are recognised and phosphorylated by this kinase on the modified glass surface

Protein kinase A
phosphorylation on peptide array (32P, PhosphorImager) [7]: The peptide 83 is probably not phosphorylated because of the excessive N-terminal localisation of the substrate motif
phosphorylation on peptide array (32P, PhosphorImager; higher signal in all three subarrays) [2]: with one exception, all the peptides on the modified glass surface are recognised and phosphorylated by protein kinase A which carries two arginine residues in position -2 and -3 (N-terminal) to the serine
phosphorylation of 11760 spots on glass (32P, PhosphorImager; FIG. 6) [8]: the linking of the immobilised kinase substrate is tolerated by the protein kinase A
phosphorylation on MBP peptide scan array (32P, PhosphorImager; higher signal in all three subarrays) [9]: most of the peptides on the modified glass surface are recognised and phosphorylated by protein kinase A which was also found in the experiment carried out in solution
phosphorylation on peptide array (32P, PhosphorImager; higher signal in all three subarrays) [10]: with one exception, all the peptides on the modified glass surface are recognised and phosphorylated by protein kinase A which carries two arginine residues in position -2 and -3 (N-terminal) to the serine
phosphorylation on peptide array (32P, PhosphorImager; higher signal in all three subarrays) [11]: with one exception, all the peptides on the modified glass surface are recognised and phosphorylated by protein kinase A which carries two arginine residues in position -2 and -3 (N-terminal) to the serine
time course of 32P incorporation on modified glass (FIG. 3) [11]: a clear time dependence can be identified for the kinase-mediated incorporation of radioactivity into the substrate amino acid sequence
phosphorylation on peptide array (32P, PhosphorImager; higher signal in all three subarrays) [12]: with one exception, all the peptides on the modified glass surface are recognised and phosphorylated by protein kinase A which carries two arginine residues in position -2 and -3 (N-terminal) to the serine
phosphorylation of 960 spots on glass (32P, PhosphorImager; FIG. 7) [13]: the linking of the immobilised kinase substrate is tolerated by the protein kinase A
